This series is described as follows: label from the status in PepcDB records.
For “MAKKTMGIHHITAIVGHPQENTDFYAGVLGLRLVKQTVNFDDPGTYHLYFGNEGGKPGTIITFFPWAGARQGVIGDGQVGVTSYVVPKGAMAFWEKRLEKFNVPYTKIERFGEQYVEFDDPHGLHLEIVEREEGEANTWTFGEVTPDVAIKGFGGATLLSEQPDKTADLLENIMGLERVGKEGDFVRYRSAGDIGNVIDLKLTPIGRGQMGAGTVHHIAWRANDDEDQLDWQRYIASHGYGVTPVRDRNYFNAIYFREHGEILFEIATDPPGFAHDETQETMGEKLMLPVQYEPHRTQIEQGLLPFEVRELD”, the protein production entry is given as “not failed”.
With “MRSLMATRAKPNKKQNASARGKKPAWLGGIGLRQVRMFCGLVLFTYLLSHFLNHALGNISPEALHAGVLWHLEIWQFLPVAILFYGSVTVHAGLGLWALYQRRQFRWKTLEPLQLVLGLSVPLMIYSHVIVMRLGNVLYDQDRLYPQVLYNYFVASPSYRAWLMVAVMLIAWTHGCIGLYVWLRIKPAFRRAMPWLLAAAVLIPTLALLGFYQGGRTVAREAASPQWQANNLAPANLGTPEQQQTLEAIGNGFLIFYLGLIALALIARAVRAIIERRGGMVRLTYDGERSIRVPKGLTVLEATQRHNIPHASACGGRARCSTCRIRVLGDPATLPPPSPREAFVLASIGTGDDPSIRLACQLKPTQDLTFLPVFPPRNVAAARKAARAARIGEERYLVSMFVDMRGSTKLAESRLPFDTVFIVNRFLGAVSRSVIACGGQPNQFVGDGMLALFGLAETPREACRNAVRAAAAIGAAIDELNNFLGHDLPEPIRFGIGIHSGEVVVGEIGYRDHMVFTALGDSVNVASRLQDMTKSLGCETLLSDELRATAGLSEQALPTLELEIRGRTEPMLVCVVERAGDLVAVLNEDLVLA”, the protein production result is given as “failed”.
Regarding “MGPVPEFSVIIPARNEAAYLPGTLRALERQTLAPAEVIVVDNASRDQTAQIARSWGAQVLSCPEGGVARARQLGLDTARSSWVATTDADSLPAPGWLAAYAQAALLAGGYPEVEAYEDVILGQNLARLGEIGYVPRALVETSARRLDRGVGPFLIQHLRNLTGHTRGLEHHHHHH”, the protein production entry is reported as “failed”.
“GKGKNIIVLHLESFQQFLIDYKLKEGDKEYEVTPFINSLYHSNATLAFPNFFHQVKAGKTSDAETMMENSLFGLNSGSFMVNYGGENTQFATPSILAQKGGYTSAVFHGNVGTFWNRNNAYKQWGYNYFFDSSYFSKQNSKNSFQYGLNDKYMFKDSIKYLEQMQQPFYTKFITVSNHYPYTSLKGESSEEGFPLAKTDDETINGYFATANYLDAALKSFFDYLKATGLYDNSIFVLYGDHYGISNSRNSSLAPLLGKDSETWSEYDNAMLQRVPYMIHIPGYTNGSIKETFGGEIDALPTLLHILGIDTSQFVQLGQDLLSPQNSQIVAQRTSGTYMTPEYTNYSGRLYNTQTGLEIT”: the protein production entry is “failed”.
Regarding “QDVPVTQVMTPRPVVFRVDATMTINEFLDKHKDTPFSRPLVYSEQKDNIIGFVHRLELFKMQQSGSGQKQLGAVMRPIQVVLNNTALPKVFDQMMTHRLQLALVVDEYGTVLGLVTLEDIFEHLVGE”, the protein production entry was “not failed”.
With “SLLRFSAVSRHHRGASIDPMTFSEATTPDALTPDAHTPRLLTCDVLYTGMGGAQSPGGVVVVGETVAAAGHPDELRRQYPHAAEERAGAVIAPPPVNAHTHLDMSAYEFQALPYFQWIPEVVIRGRHLRGVAAAQAGADTLTRLGAGGVGDIVWAPEVMDALLAREDLSGTLYFEVLNPFPDKADEVFAAARTHLERWRRLERPGLRLGLSPHTPFTVSHRLMRLLSDYAAGEGLPLQIHVAEHPTELEMFRTGGGPLWDNRMPALYPHTLAEVIGREPGPDLTPVRYLDELGVLAARPTLVHMVNVTPDDIARVARAGCAVVTCPRSNHHLECGTFDWPAFAAAGVEVALGTDSVASGETLNVREEVTFARQLYPGLDPRVLVRAAVKGGQRVVGGRTPFLRRGETWQEGFRWELSRDL” the entry was “not failed”; with “MPMHFLLFAVVCSVLVSVLLKLAPRHRIDVFQAITWNYATAALLAWLILHPALDTLRSTTAPWVALLLLAVALPSIFLVLARSVAVAGIVRTDVAQRLSLVLSLAAAFTVFGEPVNGWKLAGLALGMVAIACIVRRPRQHVATDPLPSTTGLPWLVGVWMGFALIDLLLKHIAQAGTPSLTSLTLCFALAFLLMLGVQSVRWARGARPSTRSMLAGVLLGALNFGNILCYVRAHQVLPHSPATVFASMNLGVVVLGALVGKLGFAERLGLRGWLGLALAAPAIAAIAWGIRLG”, “failed”; with “MLKRLWQIFGPVICALVLVVVVIYAYPQGRKYSYEAEKRSAVTLTNENFKSRKNKTTALSDQNHRFVPYFGSSEWLRFDALHPAVLAEKYDRNYRPYFIGQRGSASLNQYLGMQQMLPELQNGTAVYVLSPQWFTKKGYNSAAFQQFFNNDQLSSFLSQNQTDANSQYAAKRILEMKPEITMKSQLSKVAKGQDLNTVDKTYIQFMAELNRREDSLFSPLAASNNANYDKKVLPYLKELPDQFSYDALDQLAVRDAEAHTKSNDFGIDDRFYKERLSKKIGKLKGFQKNLSYEVSQEYGDLQLVLNQFAKSNTNVIFVIPPVNSKWMAYTGLNQDMYDATVSKIRYQLESQGFTNIADFSKDGDQPYFMQDTIHMGWKGWVAFDRVVNSFVSNPTPAPSYKLNDRFYSKDWSGYTGTPSQFKLEHHHHHH”, “not failed”.
With “MLRFGFAAVLLVLAGCSAPMGPEALGPGSYQAAPDPGPFLTPADAQRAFPAVVARVEPVAEAICRERTRGVPCDFQIAVDARPGLDPNAFQTLDDYGRPVIGLTLSLISDARNVDELAFVVGHETAHHILGHIPRQRETALTGAVLAGVLAQMGGADAQTIRSVQEFGANVGARSYSKNFELEADGLGTEIAIRAGYDPVHGAQFFTRLPDPGDTFLGSHPPNAQRIAAVRRAAESIGYVSAWLEHHHHHH” the entry was “failed”; with “MTLRAARPEFLDLFPAGAEARRLADGFTWTEGPVYVPARSAVIFSDVRQNRTWAWSDDGQLSPEMHPSHHQNGHCLNKQGHLIACSHGLRRLERQREPGGEWESIADSFEGKKLNSPNDVCLAPDGSLWFSDPTYGIDKPEEGYGGEMELPGRWVFRLAPDGTLSAPIRDRVKPNGLAFLPSGNLLVSDTGDNATHRYCLNARGETEYQGVHFTVEPGKTDGLRVDAGGLIWASAGDGVHVLTPDGDELGRVLTPQTTSNLCFGGPEGRTLYMTVSTEFWSIETNVRG”, “failed”.
In the case of “MTCAYRREIHHAHVAIRDWLAGDSRADALDALMARFAEDFSMVTPHGVVLDKTALGELFRSKGGTRPGLRIEIDGESLLASGVDGATLAYREIQSDAAGRSERLSTVVLHRDDEGRLYWRHLQETFCG”, the protein production result is “not failed”.
The result for “MIDVINNQAFHLHNDQISYICALLPNGQLGHLYFGPRLSLTKNDLAYLSQGSSPFAWMANFSDDQEFALGDAQQEYPVYGTGDFRQGSLSVTQDDMPIYPNFVFKDDQLTHTKTRDLHHPTSFGNPALTDVLTIHLEDKTAQLLLTLQYTIFADSAAIVRSATLTNQGTAPVMIQRMLSGVLNLPQGRYDVVHLSGNWAKERHIQTQPLTQGTFSVESLRGASSHEQNPFVALHAAGQPFAAGDTYGANLIYSGNFLDSTEVNEWDQTRLLTGIHPASFSWRLDPKTSFTTPETVFSYSSGGLAGLAQANQRFVARHIIDPQWRQKQRPVVLNSWEATYFDLNEKKLLKLAALGKQVGVDCFVLDDGWFGTRDNDLSSLGDWFTNKHKFPDGLGHFAQEIHAMGLQFGLWFEPEMVSPRSQFFQAHPNWVVRPKKGRISITRNQYVLDFSNPAVVNNIFEQMQKVITETNLDYVKWDLNRSITEAFSPYLEKIGHPQGEFFHRYVQGVYTLYQKLLTAFPHLLIEGCAGGGGRFDLGILFYSPQIWTSDDSDAIERLAIQSGMALAYPLSCMSNHVTAVPNEQVGRSTPLVTRFRVAAFGILGYELDLTKLDARTLATIKAQIAYYHALQPLVLKGDFSLLLPRQSNGQNQVAWLLSAHDRKHLVLGFFRVLADADSRTVQYMKVPLAKSDTPYWVNQHTGPISGDVLQRVGVRLPVQFNGANRAQAQLIGDYQSVLLTFDSVASLDHILEHHHHHH” reads “failed”.
The result for “MSTFGKLFRVTTYGESHCKSVGCIVDGVPPGMSLTEADIQPQLTRRRPGQSKLSTPRDEKDRVEIQSGTEFGKTLGTPIAMMIKNEDQRPHDYSDMDKFPRPSHADFTYSEKYGIKASSGGGRASARETIGRVASGAIAEKFLAQNSNVEIVAFVTQIGEIKMNRDSFDPEFQHLLNTITREKVDSMGPIRCPDASVAGLMVKEIEKYRGNKDSIGGVVTCVVRNLPTGLGEPCFDKLEAMLAHAMLSIPASKGFEIGSGFQGVSVPGSKHNDPFYFEKETNRLRTKTNNSGGVQGGISNGENIYFSVPFKSVATISQEQKTATYDGEEGILAAKGRHDPAVTPRAIPIVEAMTALVLADALLIQKARDFSRSVVH” reads “not failed”.

The values are drawn from a protein production outcome set (Wang et al. 2014).
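Note: failed if final PepcDB status was selected cloned or expressed and not failed if soluble or beyond.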
